Experimental data from patent US20090203610A1, “METHODS OF TREATING OBESITY OR DIABETES USING NT-4/5” (RINAT NEUROSCIENCE CORPORATION, priority 2004, published 2009).
Changes are numbered by the printed parent chain. In names and notes the source's numbering stands.

Experiments:
human TrkB = target: T1, human TrkB (Homo sapiens, UniProt Q16620); experiment: Receptor tyrosine phosphorylation (KIRA) in TrkB expressing cell line; assay type: cell-based; details: for functional binding with TrkB in the KIRA assay: single cysteine mutants
T1 construct: expressed in transfected cells
T1 sequence (Q16620 32-822): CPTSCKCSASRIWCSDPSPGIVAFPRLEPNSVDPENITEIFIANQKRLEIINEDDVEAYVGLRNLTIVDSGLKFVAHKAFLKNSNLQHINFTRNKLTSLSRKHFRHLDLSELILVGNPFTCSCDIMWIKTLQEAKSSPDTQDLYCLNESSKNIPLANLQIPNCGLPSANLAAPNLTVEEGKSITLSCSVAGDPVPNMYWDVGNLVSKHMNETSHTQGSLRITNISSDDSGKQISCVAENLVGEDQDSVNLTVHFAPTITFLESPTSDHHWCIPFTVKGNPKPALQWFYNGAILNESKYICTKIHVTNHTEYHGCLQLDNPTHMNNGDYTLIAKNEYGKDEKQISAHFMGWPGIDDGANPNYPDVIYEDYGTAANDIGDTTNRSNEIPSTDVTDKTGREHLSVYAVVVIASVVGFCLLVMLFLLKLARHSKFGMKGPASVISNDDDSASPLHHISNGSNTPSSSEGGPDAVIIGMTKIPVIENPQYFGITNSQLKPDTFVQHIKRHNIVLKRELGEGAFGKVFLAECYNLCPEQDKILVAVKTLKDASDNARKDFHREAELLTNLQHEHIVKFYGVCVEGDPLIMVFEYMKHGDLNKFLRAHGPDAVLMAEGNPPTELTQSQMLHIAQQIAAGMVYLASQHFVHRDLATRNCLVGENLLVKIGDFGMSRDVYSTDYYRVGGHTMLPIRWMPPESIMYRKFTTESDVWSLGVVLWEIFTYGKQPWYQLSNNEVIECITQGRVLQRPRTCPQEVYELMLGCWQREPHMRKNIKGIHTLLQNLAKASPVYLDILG
Excerpt: Method of making pegylated NT-4/5 (S50C): The native form of NT-4/5 used in this study was produced according to the method described in U.S. Pat. No. 6,184,360. A site-directed pegylated NT-4/5 was also produced. The structure of NT-4/5 in complex with domain 5 of TrkB was examined to find amino acid side chains that would be surface available and unlikely to interfere with natural disulfide bonds and also unlikely to interfere in either the interactions between the monomer subunits of NT-4/5 or the TrkB domain 5 to create a PEG attaching site. […] […] Mutant proteins were expressed in E. coli, solubilized, extracted, purified and refolded as the native NT-4/5. To pegylate the refolded NT4-S50C, NT4-Q105C, and NT-4-E67C, first a mild reduction with 0.1 mM DTT (dithiothreitol) was performed. Excess DTT was removed by dialysis against 50 mM sodium acetate at pH 6, then a 5 molar excess of mPEG-maleimide (M. W. of 10,000 Da, SunBio, Inc., South Korea) was incubated with the protein at 37° C. for several days with gentle agitation. Pegylated protein, non-pegylated protein and unreacted PEG were separated via ion exchange or size exclusion chromatography.
(§1) Assays of TrkB specific activation by pegylated NT-4/5: Stable cell lines expressing human TrkA, TrkB or TrkC were used to determine the functional activity, i.e. receptor phosphorylation, of NT-4/5 and pegylated NT-4/5 as previously described (Sadick et al. Experimental Cell Research 234: 354-361, 1997).
as §1, with “and different forms of” for “and”

[1] = tested on: NONcNZO-10 polygenic obese mice; experiment: Body weight in NONcNZO-10 mice (Example 4, Table 19); assay type: in vivo; parameters: body weight: unit not given here; details: NONcNZO-10 mice, mean
Excerpt: (§2) Test animals: 40 male NONcNZO-10 polygenic obese mice obtained from Jackson Laboratory at 10 weeks of age weighing in the range of 26-32 g were used in this study.
(§3) Administration of NT-4/5: NT-4/5 was produced in E. coli as descried in U.S. Pat. No. 6,184,360. The mice were divided into 6 groups of equivalent body weight and baseline blood glucose distribution (6-7 mice per group). […] A “paired-fed” control group received daily injection of vehicle, but were only fed with the same amount of food the 3 mg/kg group consumed the previous day. On the day when the treatment started (day 1), a baseline blood samples were collected for measuring glucose and triglyceride. Triglyceride level was measured on day 10. At the end of the study (day 12), a terminal blood sample was collected to determine glucose, triglyceride, electrolytes (Na, K, Cl), testoterone, corticosterone, thyroid hormone (total T4) and thyroid stimulating hormone (TSH) levels. Electrolytes, free testosterone, T4 and TSH levels of serum samples were measured by AniLytics (Gaithesburg, M.D) according to the standard protocols employed by the vendor. Other analytes were measured as described above. Body weight, food intake were monitored 5 days per week through out the entire study. Daily water intake was measured from day 5 through day 7.

[2] = tested on: NONcNZO-10 polygenic obese mice; experiment: Food intake in NONcNZO-10 mice (Example 4, Table 20); assay type: in vivo; parameters: unit not given here; details: NONcNZO-10 mice, mean
Excerpt: as §2, §3

[3] = tested on: NONcNZO-10 polygenic obese mice; experiment: Non-fasting blood triglyceride level in NONcNZO-10 mice (Example 4, Table 18); assay type: in vivo; parameters: non-fasting blood triglyceride level: unit not given here; details: NONcNZO-10 mice, mean
Excerpt: as §2, §3

B1: S50C: single cysteine mutant of mature human NT-4/5, serine 50 to cysteine (protein)
chain: GVSETAPASRRGELAVCDAVSGWVTDRRTAVDLRGREVEVLGEVPAAGGCPLRQYFFETRCKADNAEEGGPGAGGGGCRGVDRRHWVSECKAKQSYVRALTADAQGRVGWRWIRIDTACVCTLLSRTGRA
With B1 the “functional binding with TrkB in the KIRA assay” value (from here on “functional binding with TrkB”) (human TrkB) was “found possible”.

B2: Q105C: single cysteine mutant of mature human NT-4/5 at position 105 (protein)
chain: B1 chain with C50S, Q105C
For B2, the “functional binding with TrkB” value (human TrkB) was “found possible”.

B3: NT4 (protein)
chain: B1 chain with C50S
B3 was tested, and the body weight ([1]; 0.1 mg/kg s.c., Day 1) was 100.0, the body weight ([1]; 0.1 mg/kg s.c., Day 2) was 97.7 and the body weight ([1]; 0.1 mg/kg s.c., Day 3) was 100.0. It also gave a body weight ([1]; 0.1 mg/kg s.c., Day 4) of 102.2, a body weight ([1]; 0.1 mg/kg s.c., Day 5) of 104.5 and a body weight ([1]; 0.1 mg/kg s.c., Day 8) of 102.2. For the same molecule, the body weight ([1]; 0.1 mg/kg s.c., Day 9) was 102.8, the body weight ([1]; 0.1 mg/kg s.c., Day 10) was 103.3 and the body weight ([1]; 0.1 mg/kg s.c., Day 11) was 105.1. It also gave a body weight ([1]; 0.3 mg/kg s.c., Day 1) of 100.0, a body weight ([1]; 0.3 mg/kg s.c., Day 2) of 98.3 and a body weight ([1]; 0.3 mg/kg s.c., Day 3) of 98.9. It also gave a body weight ([1]; 0.3 mg/kg s.c., Day 4) of 100.6, a body weight ([1]; 0.3 mg/kg s.c., Day 5) of 101.8 and a body weight ([1]; 0.3 mg/kg s.c., Day 8) of 101.2. The body weight ([1]; 0.3 mg/kg s.c., Day 9) was 102.4, the body weight ([1]; 0.3 mg/kg s.c., Day 10) was 102.9 and the body weight ([1]; 0.3 mg/kg s.c., Day 11) was 104.1. It also gave a body weight ([1]; 1 mg/kg s.c., Day 1) of 100.0, a body weight ([1]; 1 mg/kg s.c., Day 2) of 97.1 and a body weight ([1]; 1 mg/kg s.c., Day 3) of 94.8. It also gave a body weight ([1]; 1 mg/kg s.c., Day 4) of 98.2, a body weight ([1]; 1 mg/kg s.c., Day 5) of 99.2 and a body weight ([1]; 1 mg/kg s.c., Day 8) of 97.7. It also gave a body weight ([1]; 1 mg/kg s.c., Day 9) of 97.6, a body weight ([1]; 1 mg/kg s.c., Day 10) of 97.6 and a body weight ([1]; 1 mg/kg s.c., Day 11) of 99.0. It also gave a body weight ([1]; 3 mg/kg s.c., Day 1) of 100.0, a body weight ([1]; 3 mg/kg s.c., Day 2) of 95.6 and a body weight ([1]; 3 mg/kg s.c., Day 3) of 94.6. The body weight ([1]; 3 mg/kg s.c., Day 4) was 94.6, the body weight ([1]; 3 mg/kg s.c., Day 5) was 94.6 and the body weight ([1]; 3 mg/kg s.c., Day 8) was 92.2. The body weight ([1]; 3 mg/kg s.c., Day 9) was 92.2, the body weight ([1]; 3 mg/kg s.c., Day 10) was 92.7 and the body weight ([1]; 3 mg/kg s.c., Day 11) was 92.6. It also gave a food intake ([2]; 0.1 mg/kg s.c., Day 1) of 5.17, a food intake ([2]; 0.1 mg/kg s.c., Day 2) of 5.50 and a food intake ([2]; 0.1 mg/kg s.c., Day 3) of 5.83. The food intake ([2]; 0.1 mg/kg s.c., Day 4) was 6.00, the food intake ([2]; 0.1 mg/kg s.c., Day 5) was 5.50 and the food intake ([2]; 0.1 mg/kg s.c., Day 8) was 4.50. For the same molecule, the food intake ([2]; 0.1 mg/kg s.c., Day 9) was 4.83, the food intake ([2]; 0.1 mg/kg s.c., Day 10) was 5.00 and the food intake ([2]; 0.3 mg/kg s.c., Day 1) was 5.32. For the same molecule, the food intake ([2]; 0.3 mg/kg s.c., Day 2) was 5.67, the food intake ([2]; 0.3 mg/kg s.c., Day 3) was 5.33 and the food intake ([2]; 0.3 mg/kg s.c., Day 4) was 5.67. It also gave a food intake ([2]; 0.3 mg/kg s.c., Day 5) of 4.83, a food intake ([2]; 0.3 mg/kg s.c., Day 8) of 4.33 and a food intake ([2]; 0.3 mg/kg s.c., Day 9) of 4.50. The food intake ([2]; 0.3 mg/kg s.c., Day 10) was 4.67, the food intake ([2]; 1 mg/kg s.c., Day 1) was 5.07 and the food intake ([2]; 1 mg/kg s.c., Day 2) was 5.43. For the same molecule, the food intake ([2]; 1 mg/kg s.c., Day 3) was 4.86, the food intake ([2]; 1 mg/kg s.c., Day 4) was 4.71 and the food intake ([2]; 1 mg/kg s.c., Day 5) was 4.43. It also gave a food intake ([2]; 1 mg/kg s.c., Day 8) of 3.93, a food intake ([2]; 1 mg/kg s.c., Day 9) of 4.00 and a food intake ([2]; 1 mg/kg s.c., Day 10) of 4.14. It also gave a food intake ([2]; 3 mg/kg s.c., Day 1) of 5.13, a food intake ([2]; 3 mg/kg s.c., Day 2) of 4.86 and a food intake ([2]; 3 mg/kg s.c., Day 3) of 4.29. The food intake ([2]; 3 mg/kg s.c., Day 4) was 4.29, the food intake ([2]; 3 mg/kg s.c., Day 5) was 4.00 and the food intake ([2]; 3 mg/kg s.c., Day 8) was 3.86. The food intake ([2]; 3 mg/kg s.c., Day 9) was 3.57, the food intake ([2]; 3 mg/kg s.c., Day 10) was 3.86 and the “non-fasting blood triglyceride level” value ([3]; 0.1 mg/kg s.c. daily, Day 1 (baseline)) was 291.7. For the same molecule, the “non-fasting blood triglyceride level” value ([3]; 0.1 mg/kg s.c. daily, Day 10) was 172.7, the “non-fasting blood triglyceride level” value ([3]; 0.3 mg/kg s.c. daily, Day 1 (baseline)) was 279.3 and the “non-fasting blood triglyceride level” value ([3]; 0.3 mg/kg s.c. daily, Day 10) was 208.0. For the same molecule, the “non-fasting blood triglyceride level” value ([3]; 1 mg/kg s.c. daily, Day 1 (baseline)) was 307.7, the “non-fasting blood triglyceride level” value ([3]; 1 mg/kg s.c. daily, Day 10) was 226.3 and the “non-fasting blood triglyceride level” value ([3]; 3 mg/kg s.c. daily, Day 1 (baseline)) was 306.1. The “non-fasting blood triglyceride level” value ([3]; 3 mg/kg s.c. daily, Day 10) was 226.3.

B4: Pegylated NT-4/5(E67C): NT-4/5 with glutamic acid 67 changed to cysteine, pegylated with mPEG-maleimide (10,000 Da) (conjugate)
chain: B1 chain with C50S, E67C
With B4 the “receptor tyrosine phosphorylation of TrkB-expressing cell line” value (human TrkB) was “active in activating TrkB receptor”.

B5: E67C: single cysteine mutant of mature human NT-4/5, glutamic acid 67 to cysteine (protein)
chain: B1 chain with C50S, E67C
With B5 the “functional binding with TrkB” value (human TrkB) was “found possible”.
